# Test results reported in US20090149339A1 (published 2009).
# Ends that are not written are not given here. * marks the point of attachment. Biotin = O=C1N[C@H]2[C@H](CS[C@H]2CCCCC(=O)*)N1
# Legend:
# [1] = biological target: T1, GST-MPP1 PDZ domain fusion protein (55 Kd erythrocyte membrane protein AA101-186; PDZ domain 1 of 1) (UniProt P08515 1-218 = GST); assay: A/G assays
# [2] = biological target: T2, GST-NeDLG PDZ domain fusion protein (presynaptic protein sao102, neuroendocrine-dlg; PDZ domains 1-2 of 3) (UniProt P08515 1-218 = GST); assay: G assay
# T2 construct: also called NeDLG1
# [3] = biological target: T3, GST-PSD95 PDZ domain fusion protein (human post-synaptic density protein 95 AA387-724; PDZ domains 1-3 of 3) (human, UniProt P08515 1-218 = GST); assay: G assay
# [4] = biological target: T4, GST-DVL1 PDZ domain fusion protein (human dishevelled segment polarity protein homolog AA248-340); PDZ domain … (human, UniProt P08515 1-218 = GST); assay: A/G assays
# [5] = biological target: T5, GST-CBP PDZ domain fusion protein (Cytohesin binding protein HE AA85-175; PDZ domain 1 of 1) (UniProt P08515 1-218 = GST); assay: A/G assays
# T5 construct: also called Prot
# [6] = biological target: T6, GST-TAX40 PDZ domain fusion protein (human tax interaction protein 40 AA35-137; PDZ domain 1 of 1) (human, UniProt P08515 1-218 = GST); assay: A/G assays
# T6 construct: also called TX 40
# [7] = biological target: T7, GST-KIAA0316 PDZ domain fusion protein (KIAA0316 AA197-284; PDZ domain 1 of 1) (UniProt P08515 1-218 = GST); assay: A/G assays
# T7 construct: also called K316
# [8] = biological target: T8, GST-PTN-4 PDZ domain fusion protein (protein-tyrosine phosphatase meg1 AA774-862; PDZ domain 1 of 1) (UniProt P08515 1-218 = GST); assay: A/G assays
# [9] = biological target: T9, GST-SYN1a PDZ domain fusion protein (alpha1-syntrophin AA96-189; PDZ domain 1 of 1) (UniProt P08515 1-218 = GST); assay: A/G assays
# T9 construct: also called SYN 1 alpha; SYNTR 1 alpha
# [10] = biological target: T10, GST-TAX43 PDZ domain fusion protein (human tax interaction protein 43 AA15-85; PDZ domain 1 of 1) (human, UniProt P08515 1-218 = GST); assay: A/G assays
# T10 construct: also called TX 43
# [11] = biological target: GST-TIAM1 PDZ domain fusion protein (T-lymphoma invasion and metastasis inducing protein 1 AA1001-1088); PDZ 1 … (UniProt P08515 1-218 = GST); assay: A/G assays
# [12] = biological target: GST-LIM PDZ domain fusion protein (Human LIM protein AA29-112; PDZ domain 1 of 1) (human, UniProt P08515 1-218 = GST); assay: A/G assays
# [13] = biological target: T11, GST-KIAA0303 PDZ domain fusion protein (KIAA0303 AA652-742; PDZ domain 1 of 1) (UniProt P08515 1-218 = GST); assay: A/G assays
# T11 construct: also called K303
# [14] = biological target: GST-MINT3 PDZ domain fusion protein (human MINT3 AA11-52; PDZ domain 1 of 1) (human, UniProt P08515 1-218 = GST); assay: A/G assays
# [15] = biological target: GST-NOS1 PDZ domain fusion protein (human neuronal nitric oxide synthase; PDZ domain 1 of 1) (human, UniProt P08515 1-218 = GST); assay: A/G assays
# [16] = biological target: T12, GST-RGS12 PDZ domain fusion protein (human regulator of G-protein signalling 12 AA35-103; PDZ domain 1 of 1) (human, UniProt P08515 1-218 = GST); assay: A/G assays
# T12 construct: also called RSG12
# [17] = biological target: GST-LIMK2 PDZ domain fusion protein (human LIM domain kinase 2 AA185-275; PDZ domain 1 of 1) (human, UniProt P08515 1-218 = GST); assay: A/G assays
# [18] = biological target: T13, GST-KIAA0559 PDZ domain fusion protein (KIAA0559 AA766-870; PDZ1 of 1) (UniProt P08515 1-218 = GST); assay: A/G assays
# T13 construct: also called K559
# [19] = biological target: T14, GST-TAX33 PDZ domain fusion protein (tax interaction protein 33 AA73-162; PDZ domain 1 of 1) (UniProt P08515 1-218 = GST); assay: A/G assays
# T14 construct: also called TX33
# [20] = biological target: T15, GST-CASK PDZ domain fusion protein (CASK AA495-584; PDZ domain 1 of 1) (mouse, UniProt P08515 1-218 = GST); assay: A/G assays
# T15 construct: also called mCASK
# [21] = biological target: T16, GST-TAX2 PDZ domain fusion protein (human tax interaction protein 2 AA54-140; PDZ domain 1 of 1) (human, UniProt P08515 1-218 = GST); assay: A/G assays
# T16 construct: also called TX 2
# [22] = biological target: GST-prIL16 PDZ domain fusion protein (putative interleukin 16 precursor AA170-383; PDZ domains 1-2 of 2) (UniProt P08515 1-218 = GST); assay: A/G assays
# [23] = biological target: T17, GST-MPP2 PDZ domain fusion protein (maguk p55 subfamily member 2 (DLG2) AA185-273; PDZ domain 1 of 1) (UniProt P08515 1-218 = GST); assay: A assay
# T17 construct: also called MMP2
# [24] = biological target: T18, GST-AF6 PDZ domain fusion protein (af-6 protein AA985-1077; PDZ domain 1 of 1) (UniProt P08515 1-218 = GST); assay: A assay
# [25] = biological target: T19, GST-41.8 kD PDZ domain fusion protein (hypothetical 41.8 kD protein AA4-85; PDZ domain 1 of 1) (UniProt P08515 1-218 = GST); assay: A assay
# T19 construct: also called hypoth
# [26] = biological target: T9, GST-SYN1a PDZ domain fusion protein …; assay: G assay
# [27] = biological target: T17, GST-MPP2 PDZ domain fusion protein …; assay: G assay
# [28] = biological target: T18, GST-AF6 PDZ domain fusion protein (af-6 …); assay: A/G assays
# [29] = biological target: T4, GST-DVL1 PDZ domain fusion protein …; assay: A assay
# [30] = biological target: T10, GST-TAX43 PDZ domain fusion protein …; assay: A assay
# [31] = biological target: T16, GST-TAX2 PDZ domain fusion protein …; assay: A assay
# [32] = biological target: T1, GST-MPP1 PDZ domain fusion protein (55 …); assay: A assay
# [33] = biological target: T8, GST-PTN-4 PDZ domain fusion protein …; assay: A and G assays
# [34] = biological target: T2, GST-NeDLG PDZ domain fusion protein …; assay: A and G assays
# [35] = biological target: T3, GST-PSD95 PDZ domain fusion protein …; assay: A and G assays
# [36] = biological target: T19, GST-41.8 kD PDZ domain fusion protein …; assay: A and G assays
# [37] = biological target: T12, GST-RGS12 PDZ domain fusion protein …; assay: A and G assays
# T18 sequence (P08515 1-218, tags or fused parts left off): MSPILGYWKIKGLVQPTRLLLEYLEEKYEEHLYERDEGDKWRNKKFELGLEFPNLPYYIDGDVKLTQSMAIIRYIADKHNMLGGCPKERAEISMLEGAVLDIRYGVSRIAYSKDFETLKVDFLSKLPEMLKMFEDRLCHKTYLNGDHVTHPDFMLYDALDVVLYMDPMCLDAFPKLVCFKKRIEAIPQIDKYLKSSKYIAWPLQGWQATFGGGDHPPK
# T13 sequence (P08515 1-218, tags or fused parts left off): as above
# T3 sequence (P08515 1-218, tags or fused parts left off): as above
# T17 sequence (P08515 1-218, tags or fused parts left off): as above
# T19 sequence (P08515 1-218, tags or fused parts left off): as above
# T15 sequence (P08515 1-218, tags or fused parts left off): as above
# T5 sequence (P08515 1-218, tags or fused parts left off): as above
# T11 sequence (P08515 1-218, tags or fused parts left off): as above
# T8 sequence (P08515 1-218, tags or fused parts left off): as above
# T9 sequence (P08515 1-218, tags or fused parts left off): as above
# T2 sequence (P08515 1-218, tags or fused parts left off): as above
# GST-LIM PDZ domain fusion protein (Human LIM protein AA29-112; PDZ domain 1 of 1), sequence (P08515 1-218, tags or fused parts left off): as above
# GST-prIL16 PDZ domain fusion protein (putative interleukin 16 precursor AA170-383; PDZ domains 1-2 of 2), sequence (P08515 1-218, tags or fused parts left off): as above
# T12 sequence (P08515 1-218, tags or fused parts left off): as above
# GST-MINT3 PDZ domain fusion protein (human MINT3 AA11-52; PDZ domain 1 of 1), sequence (P08515 1-218, tags or fused parts left off): as above
# T7 sequence (P08515 1-218, tags or fused parts left off): as above
# GST-TIAM1 PDZ domain fusion protein (T-lymphoma invasion and metastasis inducing protein 1 AA1001-1088); PDZ 1 …, sequence (P08515 1-218, tags or fused parts left off): as above
# T4 sequence (P08515 1-218, tags or fused parts left off): as above
# GST-NOS1 PDZ domain fusion protein (human neuronal nitric oxide synthase; PDZ domain 1 of 1), sequence (P08515 1-218, tags or fused parts left off): as above
# T10 sequence (P08515 1-218, tags or fused parts left off): as above
# T16 sequence (P08515 1-218, tags or fused parts left off): as above
binder,measurement,setting,value
"Biotin-QGDPALQDAGDSSRKEYFI (also called GC) [Glycophorin C C-terminal PL peptide AA37L, biotinylated]",binding result,[1],no binding
same,binding result,[2],binds
same,binding result,[3],binds
same,binding result,[4],no binding
same,binding result,[5],no binding
same,binding result,[6],no binding
same,binding result,[7],no binding
same,binding result,[8],no binding
same,binding result,[9],no binding
same,binding result,[10],no binding
same,binding result,[11],no binding
same,binding result,[12],no binding
same,binding result,[13],no binding
same,binding result,[14],no binding
same,binding result,[15],no binding
same,binding result,[16],no binding
same,binding result,[17],no binding
same,binding result,[18],no binding
same,binding result,[19],no binding
same,binding result,[20],no binding
same,binding result,[21],no binding
same,binding result,[22],no binding
same,binding result,[23],binds
same,binding result,[24],binds
same,binding result,[25],binds
"Biotin-LNSCSNRRVYKKMPSIESDV [NMDA C-terminal PL peptide AA34.2L, biotinylated]",binding result,[26],binds
same,binding result,[27],binds
same,binding result,[5],no binding
same,binding result,[6],no binding
same,binding result,[7],no binding
same,binding result,[11],no binding
same,binding result,[12],no binding
same,binding result,[13],no binding
same,binding result,[28],no binding
same,binding result,[14],no binding
same,binding result,[15],no binding
same,binding result,[17],no binding
same,binding result,[18],no binding
same,binding result,[19],no binding
same,binding result,[20],no binding
same,binding result,[22],no binding
same,binding result,[29],binds
same,binding result,[30],binds
same,binding result,[31],binds
same,binding result,[32],binds
same,binding result,[33],binds
same,binding result,[34],binds
same,binding result,[35],binds
same,binding result,[36],binds
same,binding result,[37],binds
